From patent US20180186890A1 (UNITED STATES OF AMERICA AS REPRESENTED BY THE SECRETARY …, published 2018)

Molecular target: T1, mouse CD276 expressed on the cell surface (mouse, UniProt Q8VE98 29-316)
T1 construct: whole, on cells; also called CHO-msCD276; host CD276 on tumor vasculature of CD276 WT mice
T1 sequence (looked up): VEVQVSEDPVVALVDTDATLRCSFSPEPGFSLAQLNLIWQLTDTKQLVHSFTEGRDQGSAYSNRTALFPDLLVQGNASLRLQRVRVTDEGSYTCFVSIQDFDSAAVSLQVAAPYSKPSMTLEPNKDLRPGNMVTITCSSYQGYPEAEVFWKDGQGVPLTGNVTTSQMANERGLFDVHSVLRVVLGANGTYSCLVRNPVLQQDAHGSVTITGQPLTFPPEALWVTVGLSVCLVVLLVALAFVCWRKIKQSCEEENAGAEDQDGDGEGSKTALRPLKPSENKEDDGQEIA
Test: immunofluorescence of tumor vasculature after IP injection; no green staining in CD276 KO mice

B1: FITC-labeled human anti-CD276 antibody m8524 IgG1 (antibody, V domains shown)
VH: QVQLQQSGAEVKKPGSSVKVSCKASGGTFSSYAISWVRQAPGQGLEWMGGIIPILGIANYAQKFQGRVTITADESTSTAYMELSSLRSEDTAVYYCARGGSGSYHMDVWGKGTTVTVSS
VL: EIVLTQSPATLSLSPGERATLSCRASQSVSSYLAWYQQKPGQAPRLLIYDASNRATGIPARFSGSGSGTDFTLTISSLEPEDFAVYYCQQRSNWPPRITFGQGTRLEIK
modifications: FITC-labeled antibody (site not stated)
notes: IgG1; also called anti-CD276 mAb
binding result: binds
